Patent publication US20230357348A1 (AstraZeneca / MedImmune, published 2023)
Starred links: 1 amine or outer side, 2 acyl side, 3 side chain; linkers in the order of their positions; H or OH if unused. Non-standard residues stand in square brackets, D forms with d. Groups on a side chain read outwards from the residue. No end group written: not given here. *: point of attachment. C18 diacid = O=C(O)CCCCCCCCCCCCCCCCC(=O)*; γGlu = O=C(O)[C@H](CCC(=O)[*:2])N[*:1]; αMeF = C[C@](N)(Cc1ccccc1)C(=O)O; AEEA = NCCOCCOCC(=O)O; Aib = CC(C)(N)C(=O)O

Legend:
[1] = biological target: human glucagon receptor (hGCGR) (human, UniProt P47871 26-477); assay: cell-based or functional assay
human glucagon receptor (hGCGR), sequence (P47871 26-477): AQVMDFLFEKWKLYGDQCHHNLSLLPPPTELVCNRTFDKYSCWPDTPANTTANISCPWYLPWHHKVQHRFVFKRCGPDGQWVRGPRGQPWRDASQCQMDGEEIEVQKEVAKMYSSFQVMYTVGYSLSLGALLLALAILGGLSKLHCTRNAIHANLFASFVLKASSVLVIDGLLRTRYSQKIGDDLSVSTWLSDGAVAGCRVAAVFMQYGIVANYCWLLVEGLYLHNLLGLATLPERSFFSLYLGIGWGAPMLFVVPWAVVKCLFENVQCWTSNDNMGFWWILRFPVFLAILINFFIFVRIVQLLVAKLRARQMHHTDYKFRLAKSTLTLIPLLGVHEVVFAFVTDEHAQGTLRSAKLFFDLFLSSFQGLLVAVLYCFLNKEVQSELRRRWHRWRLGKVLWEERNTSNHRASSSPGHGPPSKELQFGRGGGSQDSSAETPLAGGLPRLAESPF

[2] = biological target: human GLP-1 receptor (hGLP-1R) (human, UniProt P43220 24-463); assay: cell-based or functional assay

| hGluc-R EC50 (pM) [1] [pM] | hGLP-1R EC50 (pM) [2] [pM] | Binder |
| --- | --- | --- |
| 194 | 76.1 | H[Aib]QGTFTSDVSK[αMeF]LDSK([AEEA-AEEA-γGlu-C18 diacid])RAQDFVRWLL[Aib]TE-OH (N-terminus assumed; SMILES CC(C)C[C@H](NC(=O)[C@H](Cc1c[nH]c2ccccc12)NC(=O)[C@H](CCCNC(=N)N)NC(=O)[C@@H](NC(=O)[C@H](Cc1ccccc1)NC(=O)[C@H](CC(=O)O)NC(=O)[C@H](CCC(N)=O)NC(=O)[C@H](C)NC(=O)[C@H](CCCNC(=N)N)NC(=O)[C@H](CCCCNC(=O)COCCOCCNC(=O)COCCOCCNC(=O)CC[C@H](NC(=O)CCCCCCCCCCCCCCCCC(=O)O)C(=O)O)NC(=O)[C@H](CO)NC(=O)[C@H](CC(=O)O)NC(=O)[C@H](CC(C)C)NC(=O)[C@](C)(Cc1ccccc1)NC(=O)[C@H](CCCCN)NC(=O)[C@H](CO)NC(=O)[C@@H](NC(=O)[C@H](CC(=O)O)NC(=O)[C@H](CO)NC(=O)[C@@H](NC(=O)[C@H](Cc1ccccc1)NC(=O)[C@@H](NC(=O)CNC(=O)[C@H](CCC(N)=O)NC(=O)C(C)(C)NC(=O)[C@@H](N)Cc1c[nH]cn1)[C@@H](C)O)[C@@H](C)O)C(C)C)C(C)C)C(=O)N[C@@H](CC(C)C)C(=O)NC(C)(C)C(=O)N[C@H](C(=O)N[C@@H](CCC(=O)O)C(=O)O)[C@@H](C)O) [Peptide 39] |
| 441 | 75.6 | H[Aib]QGTFTSDVSK[αMeF]LDSK([AEEA-AEEA-γGlu-C18 diacid])RAQDFVEWLL[Aib]T-OH (N-terminus assumed; SMILES CC(C)C[C@H](NC(=O)[C@H](Cc1c[nH]c2ccccc12)NC(=O)[C@H](CCC(=O)O)NC(=O)[C@@H](NC(=O)[C@H](Cc1ccccc1)NC(=O)[C@H](CC(=O)O)NC(=O)[C@H](CCC(N)=O)NC(=O)[C@H](C)NC(=O)[C@H](CCCNC(=N)N)NC(=O)[C@H](CCCCNC(=O)COCCOCCNC(=O)COCCOCCNC(=O)CC[C@H](NC(=O)CCCCCCCCCCCCCCCCC(=O)O)C(=O)O)NC(=O)[C@H](CO)NC(=O)[C@H](CC(=O)O)NC(=O)[C@H](CC(C)C)NC(=O)[C@](C)(Cc1ccccc1)NC(=O)[C@H](CCCCN)NC(=O)[C@H](CO)NC(=O)[C@@H](NC(=O)[C@H](CC(=O)O)NC(=O)[C@H](CO)NC(=O)[C@@H](NC(=O)[C@H](Cc1ccccc1)NC(=O)[C@@H](NC(=O)CNC(=O)[C@H](CCC(N)=O)NC(=O)C(C)(C)NC(=O)[C@@H](N)Cc1c[nH]cn1)[C@@H](C)O)[C@@H](C)O)C(C)C)C(C)C)C(=O)N[C@@H](CC(C)C)C(=O)NC(C)(C)C(=O)N[C@H](C(=O)O)[C@@H](C)O) [Peptide 38] |
| 161 | 82.4 | H[Aib]QGTFTSDVSK[αMeF]LDSK([AEEA-AEEA-γGlu-C18 diacid])RAQDFVQWLL[Aib]E-OH (N-terminus assumed; SMILES CC(C)C[C@H](NC(=O)[C@H](Cc1c[nH]c2ccccc12)NC(=O)[C@H](CCC(N)=O)NC(=O)[C@@H](NC(=O)[C@H](Cc1ccccc1)NC(=O)[C@H](CC(=O)O)NC(=O)[C@H](CCC(N)=O)NC(=O)[C@H](C)NC(=O)[C@H](CCCNC(=N)N)NC(=O)[C@H](CCCCNC(=O)COCCOCCNC(=O)COCCOCCNC(=O)CC[C@H](NC(=O)CCCCCCCCCCCCCCCCC(=O)O)C(=O)O)NC(=O)[C@H](CO)NC(=O)[C@H](CC(=O)O)NC(=O)[C@H](CC(C)C)NC(=O)[C@](C)(Cc1ccccc1)NC(=O)[C@H](CCCCN)NC(=O)[C@H](CO)NC(=O)[C@@H](NC(=O)[C@H](CC(=O)O)NC(=O)[C@H](CO)NC(=O)[C@@H](NC(=O)[C@H](Cc1ccccc1)NC(=O)[C@@H](NC(=O)CNC(=O)[C@H](CCC(N)=O)NC(=O)C(C)(C)NC(=O)[C@@H](N)Cc1c[nH]cn1)[C@@H](C)O)[C@@H](C)O)C(C)C)C(C)C)C(=O)N[C@@H](CC(C)C)C(=O)NC(C)(C)C(=O)N[C@@H](CCC(=O)O)C(=O)O) [Peptide 34] |
| 2750 | 68.6 | H[Aib]QGTFTSDVSK[αMeF]LDSK([AEEA-AEEA-γGlu-C18 diacid])RAEDFVQWLL[Aib]T-OH (N-terminus assumed; SMILES CC(C)C[C@H](NC(=O)[C@H](Cc1c[nH]c2ccccc12)NC(=O)[C@H](CCC(N)=O)NC(=O)[C@@H](NC(=O)[C@H](Cc1ccccc1)NC(=O)[C@H](CC(=O)O)NC(=O)[C@H](CCC(=O)O)NC(=O)[C@H](C)NC(=O)[C@H](CCCNC(=N)N)NC(=O)[C@H](CCCCNC(=O)COCCOCCNC(=O)COCCOCCNC(=O)CC[C@H](NC(=O)CCCCCCCCCCCCCCCCC(=O)O)C(=O)O)NC(=O)[C@H](CO)NC(=O)[C@H](CC(=O)O)NC(=O)[C@H](CC(C)C)NC(=O)[C@](C)(Cc1ccccc1)NC(=O)[C@H](CCCCN)NC(=O)[C@H](CO)NC(=O)[C@@H](NC(=O)[C@H](CC(=O)O)NC(=O)[C@H](CO)NC(=O)[C@@H](NC(=O)[C@H](Cc1ccccc1)NC(=O)[C@@H](NC(=O)CNC(=O)[C@H](CCC(N)=O)NC(=O)C(C)(C)NC(=O)[C@@H](N)Cc1c[nH]cn1)[C@@H](C)O)[C@@H](C)O)C(C)C)C(C)C)C(=O)N[C@@H](CC(C)C)C(=O)NC(C)(C)C(=O)N[C@H](C(=O)O)[C@@H](C)O) [Peptide 37] |
| 548 | 213 | H[Aib]QGTFTSDVSK[αMeF]LDSK([AEEA-AEEA-γGlu-C18 diacid])RAQDFVQWLE[Aib]T-OH (N-terminus assumed; SMILES CC(C)C[C@H](NC(=O)[C@H](Cc1c[nH]c2ccccc12)NC(=O)[C@H](CCC(N)=O)NC(=O)[C@@H](NC(=O)[C@H](Cc1ccccc1)NC(=O)[C@H](CC(=O)O)NC(=O)[C@H](CCC(N)=O)NC(=O)[C@H](C)NC(=O)[C@H](CCCNC(=N)N)NC(=O)[C@H](CCCCNC(=O)COCCOCCNC(=O)COCCOCCNC(=O)CC[C@H](NC(=O)CCCCCCCCCCCCCCCCC(=O)O)C(=O)O)NC(=O)[C@H](CO)NC(=O)[C@H](CC(=O)O)NC(=O)[C@H](CC(C)C)NC(=O)[C@](C)(Cc1ccccc1)NC(=O)[C@H](CCCCN)NC(=O)[C@H](CO)NC(=O)[C@@H](NC(=O)[C@H](CC(=O)O)NC(=O)[C@H](CO)NC(=O)[C@@H](NC(=O)[C@H](Cc1ccccc1)NC(=O)[C@@H](NC(=O)CNC(=O)[C@H](CCC(N)=O)NC(=O)C(C)(C)NC(=O)[C@@H](N)Cc1c[nH]cn1)[C@@H](C)O)[C@@H](C)O)C(C)C)C(C)C)C(=O)N[C@@H](CCC(=O)O)C(=O)NC(C)(C)C(=O)N[C@H](C(=O)O)[C@@H](C)O) [Peptide 33] |
| 335 | 83.7 | H[Aib]QGTFTSDVSK[αMeF]LDTK([AEEA-AEEA-γGlu-C18 diacid])RAQDFVQWLL[Aib]T-OH (N-terminus assumed; SMILES CC(C)C[C@H](NC(=O)[C@H](Cc1c[nH]c2ccccc12)NC(=O)[C@H](CCC(N)=O)NC(=O)[C@@H](NC(=O)[C@H](Cc1ccccc1)NC(=O)[C@H](CC(=O)O)NC(=O)[C@H](CCC(N)=O)NC(=O)[C@H](C)NC(=O)[C@H](CCCNC(=N)N)NC(=O)[C@H](CCCCNC(=O)COCCOCCNC(=O)COCCOCCNC(=O)CC[C@H](NC(=O)CCCCCCCCCCCCCCCCC(=O)O)C(=O)O)NC(=O)[C@@H](NC(=O)[C@H](CC(=O)O)NC(=O)[C@H](CC(C)C)NC(=O)[C@](C)(Cc1ccccc1)NC(=O)[C@H](CCCCN)NC(=O)[C@H](CO)NC(=O)[C@@H](NC(=O)[C@H](CC(=O)O)NC(=O)[C@H](CO)NC(=O)[C@@H](NC(=O)[C@H](Cc1ccccc1)NC(=O)[C@@H](NC(=O)CNC(=O)[C@H](CCC(N)=O)NC(=O)C(C)(C)NC(=O)[C@@H](N)Cc1c[nH]cn1)[C@@H](C)O)[C@@H](C)O)C(C)C)[C@@H](C)O)C(C)C)C(=O)N[C@@H](CC(C)C)C(=O)NC(C)(C)C(=O)N[C@H](C(=O)O)[C@@H](C)O) [Peptide 35] |
| 278 | 43.1 | H[Aib]QGTFTSDVSK[αMeF]LDSK([AEEA-AEEA-γGlu-C18 diacid])RARDFVQWLL[Aib]T-OH (N-terminus assumed; SMILES CC(C)C[C@H](NC(=O)[C@H](Cc1c[nH]c2ccccc12)NC(=O)[C@H](CCC(N)=O)NC(=O)[C@@H](NC(=O)[C@H](Cc1ccccc1)NC(=O)[C@H](CC(=O)O)NC(=O)[C@H](CCCNC(=N)N)NC(=O)[C@H](C)NC(=O)[C@H](CCCNC(=N)N)NC(=O)[C@H](CCCCNC(=O)COCCOCCNC(=O)COCCOCCNC(=O)CC[C@H](NC(=O)CCCCCCCCCCCCCCCCC(=O)O)C(=O)O)NC(=O)[C@H](CO)NC(=O)[C@H](CC(=O)O)NC(=O)[C@H](CC(C)C)NC(=O)[C@](C)(Cc1ccccc1)NC(=O)[C@H](CCCCN)NC(=O)[C@H](CO)NC(=O)[C@@H](NC(=O)[C@H](CC(=O)O)NC(=O)[C@H](CO)NC(=O)[C@@H](NC(=O)[C@H](Cc1ccccc1)NC(=O)[C@@H](NC(=O)CNC(=O)[C@H](CCC(N)=O)NC(=O)C(C)(C)NC(=O)[C@@H](N)Cc1c[nH]cn1)[C@@H](C)O)[C@@H](C)O)C(C)C)C(C)C)C(=O)N[C@@H](CC(C)C)C(=O)NC(C)(C)C(=O)N[C@H](C(=O)O)[C@@H](C)O) [Peptide 36] |
| 886 | 448 | H[Aib]QGTFTSDVSK[αMeF]LDSK([AEEA-AEEA-γGlu-C18 diacid])RARDFVAWLL[Aib]TE-OH (N-terminus assumed; SMILES CC(C)C[C@H](NC(=O)[C@H](Cc1c[nH]c2ccccc12)NC(=O)[C@H](C)NC(=O)[C@@H](NC(=O)[C@H](Cc1ccccc1)NC(=O)[C@H](CC(=O)O)NC(=O)[C@H](CCCNC(=N)N)NC(=O)[C@H](C)NC(=O)[C@H](CCCNC(=N)N)NC(=O)[C@H](CCCCNC(=O)COCCOCCNC(=O)COCCOCCNC(=O)CC[C@H](NC(=O)CCCCCCCCCCCCCCCCC(=O)O)C(=O)O)NC(=O)[C@H](CO)NC(=O)[C@H](CC(=O)O)NC(=O)[C@H](CC(C)C)NC(=O)[C@](C)(Cc1ccccc1)NC(=O)[C@H](CCCCN)NC(=O)[C@H](CO)NC(=O)[C@@H](NC(=O)[C@H](CC(=O)O)NC(=O)[C@H](CO)NC(=O)[C@@H](NC(=O)[C@H](Cc1ccccc1)NC(=O)[C@@H](NC(=O)CNC(=O)[C@H](CCC(N)=O)NC(=O)C(C)(C)NC(=O)[C@@H](N)Cc1c[nH]cn1)[C@@H](C)O)[C@@H](C)O)C(C)C)C(C)C)C(=O)N[C@@H](CC(C)C)C(=O)NC(C)(C)C(=O)N[C@H](C(=O)N[C@@H](CCC(=O)O)C(=O)O)[C@@H](C)O) [Peptide 168] |
